Target: the molecule itself
Assay: SEC; size exclusion chromatography of AtRGP2 WT and its F280D/L283D/Y287D mutant (Fig. S12A); column and buffer not given

B1: AtRGP2 wildtype, recombinant (enzyme)
chain: not shown
notes: AtRGP2, UniProtKB Q9LFW1; codon-optimized gene cloned into pET32a; Only the vector pET32a and the nickel-sepharose purification are stated; also called AtRGP2 WT; source: E. coli BL21-Gold (DE3), purified (nickel-sepharose, Superdex 200)
  binding result: binds
